{"source": "the DeepSol protein solubility set"}
{"assay": "soluble on expression in E. coli; label from the status in PepcDB or PDB records"}
{"sequence": "MGSDKIHHHHHHMNFKQLLIDNFTYKTSYIARQAQGMNVKETKDYIAVDCGLPADTFNIITLLNNNVTEGIEKLYKEVNNYNQKKFPMSVWFWDDRYEQTIKSELIKLDLKEAEQNIAMVAELNTIHPTINMPEGFTIQKASSPEQIKKFGETLANLFGSSEEGIHVQAFYNQTASFDLWNSGNMNLYLGLYKDEVISVGSLVCTKDSIGIYDIATKEEMRGKGFGSTMFHYLLQEAKALNVAQCVLQASPDGINIYKKAGFQSVGQMTVFENRHLFE", "soluble on expression in E. coli": "not soluble"}
{"sequence": "MVGHSESSTDAVIEPTSEELLAEQVRVFNKMKGSTNFNRVAEDVYPVEVTKSKLVCEMVVQHQHLNSKGTLHGGQTATLTDVITARAVGVTVKDKGMASVELAVSYLLPVKVGDVLEITAHVLKVGRTMAFTDCEFRRKSDGKMSAKGKHTLAFLPNQPGISVENGTQFLEHHHHHHS", "soluble on expression in E. coli": "soluble"}
{"sequence": "MGSDKIHHHHHHAEEQVYSESEVSTVLSKLEKEAISEAAAEQYTVVDRKEDAWGMKHLKLEKQTEGVTVDSDNVIIHLDRNGAVTSVTGNPVDQVVKIQSVDAIGEEGVKKIIASDNPETKDLVFLAIDKRVNNEGQLFYKVRVTSSPTGDPVSLVYKVNATDGTIMEKQDLTEHVGSEVTLKNSFQVAFNVPVEKSNTGIALHGTDNTGVYHAVVDGKNNYSIIQAPSLVALNQNAVDAYTHGKFVKTYYEDHFQRHSIDDRGMPILSVVDEQHPDAYDNAFWDGKAMRYGETSTPTGKTYASSLDVVGHEMTHGVTEHTAGLEYLGQSGALNESYSDLMGYIISGASNPEIGADTQSVDRKTGIRNLQTPSKHGQPETMAQYDDRARYKGTPYYDQGGVHYNSGIINRIGYTIIQNLGIEKAQTIFYSSLVNYLTPKAQFSDARDAMLAAAKVQYGDEAASVVSAAFNSAGIGAKEDIQVNQPSESVLVNE", "soluble on expression in E. coli": "not soluble"}
{"sequence": "MSLTGTDFHVGIVGLGSMGMGAARSCLRAGLSTWGADLNPQACANLLAEGACGAAASAREFAGVVDALVILVVNAAQVRQVLFGEDGVAHLMKPGSAVMVSSTISSADAQEIAAALTALNLNMLDAPVSGGAVKAAQGEMTVMASGSEAAFTRLKPVLDAVASNVYRISDTPGAGSTVKIIHQLLAGVHIAAAAEAMALAARAGIPLDVMYDVVTHAAGNSWMFENRMQHVVDGDYTPRSAVDIFVKDLGLVADTAKALRFPLPLASTALNMFTSASNAGYGKEDDSAVIKIFSGITLPGVTPEEGHHHHHH", "soluble on expression in E. coli": "soluble"}
{"sequence": "MRRVGESSTGDRKALRSGLKRQGSADEDDIESIFSGIGSARINEPKAKKDDDESNEEKYFSVGKDGRRYHEGLPVYTTEELHLGDGGGDTEDCPIYCDCCL", "soluble on expression in E. coli": "not soluble"}
{"sequence": "MGSDKIHHHHHHMKYKIHWLYKTKRGLQTDLTTDYMNIEEVLQFAEDFEKTGRVKELLFYDEMDAEWSLKEMKKLSKQVEDEPQEILVYFDGGYDVQTKEAGVGICVYYKKGNKNYRIRRNAYIEGIYDNNEAEYASLLYSMNILEELGIKYEAVTLRGDSQVVLQQLAGEWPCYDEHLNHYLDQIEQKAKQMKLKLVCEPISRKQNKEAHQLATQALEGTVIDSHKEITE", "soluble on expression in E. coli": "not soluble"}
{"sequence": "MTQHNDNDDDAALFRAAIGPVRPLRPSEMAITIKPPSRPRRRIIQHHQDEAKSKFAQLLRESAPLEAGDTISYRSKALPSRLFQRLKRGQFSVQDELDLHGATVVQAETLLRQFLLEAHMYEYGCVRIIHGKGLQSNGGTPVLKNLVNQLLRLRKDVLAFHSSPPAQGGTGAVLVLLTHH", "soluble on expression in E. coli": "soluble"}
{"sequence": "TAELKICRVNRNSGSCLGGDEIFLLCDKVQKEDIEVYFTGPGWEARGSFSQADVHRQVAIVFRTPPYADPSLQAPVRVSMQLRRPSDRELSEPMEFQYLPDTDDRHRIEEKRKRTYETFKSIMKKSPFNGPTEPRP", "soluble on expression in E. coli": "soluble"}
{"sequence": "MAPQNKPYFTYNNEIIGEATQSNPLGNVVRTTISFKSDDKVSDLISTISKAVQFHKNNSASGENVTINENDFINQLKANGVTVKTVQPSNKNEKAYEAIDKVPSTSFNITLSATGDNNQTATIQIPMVPQGASTPTDTTQNPQINWTKGGQAQSSSLNGQVFQVAVGSNFNPLNFTNSNGENIIVSAQQSKNNTTFASIEATSNPVNTSEAGRYYNVTLTATGNTGKKTTATYTVLITSSQKQTLYGNGESTISTYSIYGNNVLSNSTTFKDGDQVYVSDQTKTVGGVSYSQVSPKSKNDANSSNIWVKTSALVKPAGDTNVKTYPVMVDSRAYDKNGNYLGHMYYAYDNIDIVPTVVTINGKTYYKVANKDEYVRVTNITGNQRTLKHNAYIYWSSYRRTPGTGKMYRGQTVTTYGPQMKFKNGKKYYRIEGCRNNNKRYIKAVNFYLEHHHHHH", "soluble on expression in E. coli": "soluble"}
{"sequence": "MENISDLWNSALKELEKKVSKPSYETWLKSTTAHNLKKDVLTITAPNEFARDWLESHYSELISETLYDLTGAKLAIRFIIPQSQAEEDIDLPPVKPNPAQDDSAHLPQSMLNPKYTFDTFVIGSGNRFAHAASLAVAEAPAKAYNPLFIYGGVGLGKTHLMHAIGHYVIEHNPNAKVVYLSSEKFTNEFINSIRDNKAVDFRNKYRNVDVLLIDDIQFLAGKEQTQEEFFHTFNALHEESKQIVISSDRPPKEIPTLEDRLRSRFEWGLITDITPPDLETRIAILRKKAKAEGLDIPNEVMLYIANQIDSNIRELEGALIRVVAYSSLINKDINADLAAEALKDIIPNSKPKIISIYDIQKAVGDVYQVKLEDFKAKKRTKSVAFPRQIAMYLSRELTDSSLPKIGEEFGGRDHTTVIHAHEKISKLLKTDTQLQKQVEEINGILKLEHHHHHH", "soluble on expression in E. coli": "not soluble"}
{"sequence": "GQEPENQTLETILNRKSVRKYKDRPVEKEKIDKLIRAGMAAPSSRDRRPWEFIIVTDRKALDTMAEGLPFARMLKETRQAIVVCGDTIKSSNAWFLDCSAASQNLLLAAESMGLGAVWTAVYPYPDRIEIVRKELRLPDHIMPLNVIPVGYPMQKETPKNKYNVQQIHHNGW", "soluble on expression in E. coli": "soluble"}
{"sequence": "MGSDKIHHHHHHMDTQAFKQTLHKSDRYNRRGFGSANKRAQALAEAYQSGLIGSIRENGNLLEHGRLKVKLAEAFGFCWGVERSVAMAYETRKHYPNERIWITNEIIHNPSVNDHLRKMNVLFISEEKGVKDFSVVKDGDVVILPAFGATVQDMKLLHDRGCHIIDTTCPWVSKVWHTVEKHKKHTFTSIIHGKYKHEETLATSSFAGTYLVLFDLEEANYVSDYILGKGNREDFLKRFSKASSAGFDPDKDLQKVGVANQTTMLKSETEEIGRLFEKTMLQRFGPAQLNEHFLAINTICDATEERQGAMFSLVDEPLDLMVVIGGFNSSNTTHLQEIAISRGIRSFHIDTPERIGEETNTITHMPLEGGELLTEENFLQNGNISVGITSGASTPDRVVEDVIHKLMKIGENF", "soluble on expression in E. coli": "not soluble"}
{"sequence": "MSTRTEAVKAYLLDLQDRICTALEQEDGNAHFVEDAWTRPAGGGGRTRVVENGAVIEKGGVNFSHVFGSNLPPSASAHRPELAGRGFEALGVSLVIHPHSPHVPTSHANVRFFIAEKEGEEPVWWFGGGFDLTPYYGVEEDCVHWHRVAERACAPFGDDVYPRYKAWCDSYFHLKHRDEPRGIGGLFFDDVNQWDFDTSFAFIRAIGDAFINAYLPIVRRRKAAAYTVQQREFQEFRRGRYVEFNLVYDRGTLFGLQSGGRTESILMSLPPQVRWGYDWKAAPGSEEARLTDYFLTDRDWLADNAAALEHHHHHH", "soluble on expression in E. coli": "not soluble"}
{"sequence": "GPGSMFILADQLALPLPRSPLFFDVFDFSLEHTAMSQEAGCDTKGGGSTVTSVTAGTSGKHEETPVVTEDSSFVYACRLCRRILFTHEEIMPHSADSSSKGPKAFGRRGAPKQQSDQQNAGVCTSYFLNPDVSIWVAAESREAHCESGGTSVLPDTVYCPNNSCSAKIGTQSWVGSQCSCGVWVTPAFKIHGRAVDKLQSQ", "soluble on expression in E. coli": "not soluble"}
{"sequence": "MKIVAVTACPTGIAHTYMAADALMKAAPKHNVQIKVETQGAMGIENQLTPHDIAQADRVLIVSDIEIEQPGRFEGTRKIQIPIEEVLLNVDKVFLVHCRD", "soluble on expression in E. coli": "soluble"}
{"sequence": "TPDFGFTLRGNFTYSKNKVQNWEQAYLEYPYLEYNNFPYNSIRGYQAVGLFKDEDDIKYSPKQTFGEVMPGDIKYKDINGDGMVDKLDMVPLTHSTYPLLMYGLGAEIRYKNLTLGVLFKGTGKTSFFYVGQKTTVNDETRLNGMGYMPFFEGNTGNVLTLAANPVNRWIPRDYAIAHGIDPSLAENPNARFPRLQYGNNSNNSQLSTFWQGDSRYIRLQEITLNYHLATAFLRRIGVSSLDIQFVGNNLYVWDKVKLFDPEQARWNGRVYPIPSTYSLQLYVNL", "soluble on expression in E. coli": "not soluble"}
{"sequence": "MGSDKIHHHHHHMSGTHDTKQAIASALIELCEQKDFRKISVQDITKKVGLNRQTFYYHFTDKYDLLRWIYRHDALIYLETDICLENWEEQALKLLKAIKEKSHFYYTTVTSDSEVLLNVFSASTNRLFISLFEQVDVENHLTDKDKQFYANFFSYGCSGVLTKWILEEYPQTPLEMATQLFRLAKDTEFMAYHLYEQEANE", "soluble on expression in E. coli": "not soluble"}
{"sequence": "MAHHHHHHMSAWASGDTLERLKLKPETAPSNRGNGRQASADATSSTSVKATSNADAEGVVQASMAATIASTNKNKNKKALEGKVSKKNAPKNTAHTADEKQPPTQEQTASSSGGAKRNEPKKGASDSRDCPVTLPSDVAELVVNAFTFIGTVQALRAGTSTDGRESMLSAAVRAPEFVPQRRDYAVQNATSGSDTQHVGELASNAYPMHHHHHHHHYQLHQQQKQPQHTPLVSTSRVQQQEQPPWAPYYNDQQHRQHHSVHHHRHQQQQQQLAYGQPDCTTGKMYHDAYSPVDYDMNLCAAPPYSRMYSGYPGMCMGANMLPNMSGYGGLALRRPLPYFPQQQNQVTAYKSTHVGQQQPWMRNDSGPSNARKGSGAGQWYPGGQAGFNDALSVWNQQRNAGNWARQAEQSGPAGAHTSSAP", "soluble on expression in E. coli": "not soluble"}
{"sequence": "MGSDKIHHHHHHMDVSIDSGKKKIIPFIQSGDYFFRRGVIAFRKNHLSRAVKLLERAVKLTEQEPVFHIQLAAVLSELGHYERSNDILESVVQNLDPGHSECHFFMANNYAYLGLFEKAEHCAIAYLSDQPDGEFAKDAHDLLDLLRFEKEEEGDEWENELTPTDQFLLEHEKACQLLEEGHLQEAIVLLEKLMDEEPSYWTAYNQYAQALFRLGNVEKAFEVCEHILEEDQGNLFALCNMALFYKKQGQQQQAESLIQALSAVHPMDRAHRFKVAQVLCAVGAYEQAYDRLKELEWTSISSDPEWHFCIGVAAYHLGQEEIALRYWKKAATLGVQQAADYYAMSIVDILQKEDVTYEGWHVKQKSRQNS", "soluble on expression in E. coli": "not soluble"}
{"sequence": "SLRLKISLLSPADSFEIDLNHSYHLASAIYRAIERADPSLSIELHKPDVPKFFTFSKLFIPKRKFRIEGEKMVSDCEEAYFFFSTLRNEVAASLVEGLLSKPEIRICGVDFIVSEVSVLPEREVKGREKFVTLSPIYASTSVGENGRRRIFDLYPKDSKFYEVILQNLVKKYVLYYKSAPENLDFHMKPLNVKAKRIRLKDTFHRCVEMVFKAEGSPELLDVGYKAGFGSKNSMGFGMVKVV", "soluble on expression in E. coli": "soluble"}
{"sequence": "MEKIVYEQLKETLYYEKLPNGLDVYILPKQGFNKTFATSTTKYGSVDNTFVPLGKEEMIRVPDGIAHFLEHKLFEKEDHDAFQLFSKQGASANAFTSFTRTAYLFSCTSNVEQNLNTLLNFVQEPYFSEKTVEKEKGIIGQEIQMYQDNPDWRLYFGLIDSLFVKHPIKIDIAGTIESISKITKDLLYECYETFYHPSNMLMFVVGAIDPEKTMDLVHENQAKKDYKNQPEIVRSFEEEPDEVNEKKKIISMPVQTPKCLVGIKATNLKEKGEALLKQEIALTLLLDYLFGKSSVHYESLYNEGLIDDTFSYDYTEENNFGFAMVGGDTKQPDELEERLKSILLNTNYNQLDEAALERVKKKKIGGFLRSLNSPEYIANQFTRYAFNESSLFDALTVLESLTVQDLQEVAQLLLSEEKMSVCQVLPKK", "soluble on expression in E. coli": "not soluble"}
